Data as given in IntAct's records for PubMed 22821967.

B1: Uncharacterized protein YpfA (Bacillus subtilis), P38491 (parent)
chain: MIEIGENVLLEYIEENELKKAKSKAVSIENNELLIAYPVDVVTGRTVILHNDMEVTVEFVGKDEVPYRFISRIKGKVKDKLQMICLEMPPREKMKRIQRRQYVRTDAVLDVQIQPGNEEEIRTLSYNISAGGIAVVLADGLSFQSGESLRLIIRLPEEEHTRQIETEAVVRRIFNDPKSEKRKMTLEYSEIAAGDQQALLQYCIRRQLNKRRKARME
partner: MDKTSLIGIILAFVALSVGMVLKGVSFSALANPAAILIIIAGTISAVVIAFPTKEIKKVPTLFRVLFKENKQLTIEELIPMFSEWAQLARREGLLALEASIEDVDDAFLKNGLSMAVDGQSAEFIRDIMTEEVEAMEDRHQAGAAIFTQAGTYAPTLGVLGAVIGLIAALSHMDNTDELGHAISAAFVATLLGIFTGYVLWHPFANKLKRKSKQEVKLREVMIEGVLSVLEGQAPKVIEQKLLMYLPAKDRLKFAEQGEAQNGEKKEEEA

Variants of: B1
Settings: with mota_bacsu motA

Variant | effect of a mutation on the interaction
G132A | disrupting interaction
N127A | disrupting interaction
R104D | disrupting interaction
R100F | disrupting interaction
